Measured values taken from publication PMC2765525.

Molecular target: KIX domain (residues 568-672) of mouse CBP (mouse) (UniProt P45481)
Experiment: NMR titration

Sequence of KIX domain (residues 568-672) of mouse CBP (mouse) (P45481 568-672): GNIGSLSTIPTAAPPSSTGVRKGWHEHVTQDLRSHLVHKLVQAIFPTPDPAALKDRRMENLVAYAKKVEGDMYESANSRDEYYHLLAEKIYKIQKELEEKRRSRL

A Kd of 214 µM was found for “p53(14-28) (from UniProt P04637 14-28) (peptide)” in this work.
